Results from patent US20230348572A1 (ROSALIND FRANKLIN INSTITUTE, published 2023).
Like-named read-outs stand apart in the source and are kept apart here.

Assays:
[1] = molecular target: T1, SARS-CoV-2 Spike receptor binding domain (RBD, amino acids 330-532) (SARS-CoV-2, UniProt P0DTC2 330-532); experiment: phage ELISA on biotinylated RBD captured on neutravidin, anti-M13-HRP
T1 construct: range 330-532

RBD-Fc [2] = molecular target: T2, RBD-Fc (SARS-CoV-2; human, UniProt P0DTC2 330-532)
RBD-Fc [3] = molecular target: T2, RBD-Fc; remark: listed apart in the source
[4] = molecular target: T1, SARS-CoV-2 Spike receptor binding …
[5] = molecular target: T1, SARS-CoV-2 Spike receptor binding …; experiment: ITC, nanobody titrated into RBD, 25 °C, 1:1 stoichiometry
RBD-Fc [6] = molecular target: T2, RBD-Fc; experiment: SPR single-cycle kinetics, RBD-Fc on Protein A chip, nanobody as analyte
[7] = molecular target: T1, SARS-CoV-2 Spike receptor binding …; experiment: ITC, RBD in the cell, H11-H4 in the syringe
RBD-Fc [8] = molecular target: T2, RBD-Fc; remark: listed apart in the source
RBD-Fc [9] = molecular target: T2, RBD-Fc; experiment: SPR, single-cycle kinetics, RBD-Fc immobilized, H11-D4 as analyte, run ii)
[10] = molecular target: T1, SARS-CoV-2 Spike receptor binding …; remark: listed apart in the source
RBD-Fc [11] = molecular target: T2, RBD-Fc; experiment: SPR, single-cycle kinetics, RBD-Fc immobilized, H11-D4 as analyte, run i)

B1: NbRBD_G9 (VHH)
VHH: QVQLVESGGGLVQPGGSLRLSCAASGFTFYDYHMSWVRQAPGKGLEWVSGIDTGGGRTYAADSVKGRFTISRDNAKNTLYLQMNSLKSEDTALYYCVRDGDARGPDYDYWGQGTMVTVSS
[1]
  ELISA A405: > 1.5

B2: NbRBD_B11 (VHH)
VHH: QVQLVESGGGLVQPGGSLRLSCAASGFTFDDYAMSWVRQAPGKGLEWVSNIYSYISTTHYADSVKGRFTISTDNAKNTLYLQMNSLKPEDTAVYYCAARRLDTTDYKYWGQGTQVTVSS
[1]
  ELISA A405: > 1.5

B3: NbRBD_F5 (VHH)
VHH: QVQLVESGGGLVQAGGSLRLSCAASGTIFRINAMAWYRQAPGKQRELVAIISNGDSGDSTNYADSVKGRFTISRDSAKNTVYLQMNSLKPEDTAVYYCNVEASWPHKYWGQGTQVTVSS
[1]
  ELISA A405: > 1.5

B4: NbRBD_B4 (VHH)
VHH: QVQLVESGGGLVQPGGSLRLSCAASGFTFSSYWMYWVRQAPGKGLEWVSVINTGGDTTYYADSVKGRFTISRDNDENTLSLQMNSLKPEDTALYYCARTGVVRGPGDLDAWGQGTQVTVSS
[1]
  ELISA A405: > 1.5

B5: NbRBD_H11 (VHH)
VHH: QVQLVESGGGLMQAGGSLRLSCAVSGRTFSTAAMGWFRQAPGKEREFVAAIRWSGGSAYYADSVKGRFTISRDKAKNTVYLQMNSLKYEDTAVYYCAQTRVTRSLLSDYATWPYDYWGQGTQVTVSS
notes: also called nanobody H11; Nb H11
[1]
  ELISA A405: > 1.5
RBD-Fc [2]
  Kd: 378 nM
RBD-Fc [3]
  Kd: < 1000 nM

B6: NbRBD_H11-H4 (VHH)
VHH: QVQLVESGGGLMQAGGSLRLSCAVSGRTFSTAAMGWFRQAPGKEREFVAAIRWSGGSAYYADSVKGRFTISRDKAKNTVYLQMNSLKYEDTAVYYCAQTHYVSYLLSDYATWPYDYWGQGTQVTVSS
notes: also called nanobody H11-H4
[4]
  Kd: 11.8 nM
  ΔH: -69 kJmol-1
  ΔS: -79 Jmol-1K-1
[5]
  Kd: 12 nM
RBD-Fc [6]
  Kd: ~5 nM
[7]
  ΔH: -67 kJmol-1
  ΔS: -80 Jmol-1K-1
RBD-Fc [8]
  Kd: 5.5 nM

B7: NbRBD_H11-D4 (VHH)
VHH: QVQLVESGGGLMQAGGSLRLSCAVSGRTFSTAAMGWFRQAPGKEREFVAAIRWSGGSAYYADSVKGRFTISRDKAKNTVYLQMNSLKYEDTAVYYCARTENVRSLLSDYATWPYDYWGQGTQVTVSS
notes: also called nanobody H11-D4
[5]
  Kd: 39 nM
RBD-Fc [9]
  Kd: 10 nM
[10]
  Kd: 39.2 nM
  ΔH: -76.1 kJmol-1
  ΔS: -114 Jmol-1K-1
RBD-Fc [11]
  Kd: 9 nM
RBD-Fc [6]
  Kd: ~10 nM

B8: NbRBD_G7 (VHH)
VHH: QVQLVESGGGLVQPGGSLRLSCATSGFTFDTYDMSWVRQAPGNGPEWVSAEDSTGNKFYADSVKGRFAISRDNARNTLYLQMNSLTSEDTAVYYCAKGLRSWGAWGQGTQVTVSS
[1]
  ELISA A405: > 1.5

B9: NbRBD_A7 (VHH)
VHH: QVQLVESGGGLVQPGGSLRLSCAASGFTFDDYAMSWVRQAPGKGLEWVSAISWNGGGTYYAESMKGRFTISRDNAKNTLYLQMNSLKSEDTAVYYCAKDFHRYGSSTLEYDYWGQGTQVTVSS
[1]
  ELISA A405: > 1.5

B10: NbRDB_E11 (VHH)
VHH: QVQLVESGGGLVQPGGSLRLSCAASGFTFSNYAMTWVRQAPGKGLEWISDIGSDGRHPAYADSVKGRYTISRDNAKNTLYLQMNSLKPEDTAMYYCLPGWSTVGTFLDAWGQGTQVTVSS
[1]
  ELISA A405: > 1.5

B11: NbRBD_F9 (VHH)
VHH: QVQLVESGGGLVQPGGSLRVSCAASGFTFSSYFMSWVRQAPGKQRELVATIGDRGNTNYADSVKGRFTISRDNAKNTVYLQMNSLKPEDTAVYYCYSRNRILQHYWGQGTQVTVSS
[1]
  ELISA A405: > 1.5

B12: NbRBD_D1 (VHH)
VHH: QVQLVESGGGLVQPGGSLRLSCAASGFTFSSYGMSWVRQAPGKGLEWVSGINSGGGSTSYADSVKGRFTISRDNAKNTLYLQMNSLKSEDTAVYYCAKDASEDAGRLYWTDYWGQGTQVTVSS
[1]
  ELISA A405: > 1.5

B13: NbRBD_C7 (VHH)
VHH: QVQLVESGGGLVQPGGSLRLSCAASGFTFSSYDMSWVRQAPGKGLEWVSGISGSDSTTVYSDSVKDRFTISRDNAKNTLYLQMNKLKPEDTALYYCARPLGQYTSWGQGTQVTVSS
[1]
  ELISA A405: > 1.5

B14: NbRBD_G11 (VHH)
VHH: QVHLVESGGGLVQPGGSLRLSCAASGFTFDDYGMTWVRQAPGKGLEWVSAVNSGGGTSYADSVKGRFTISRDNAKNTLYLQMNSLKPEDTAVYYCAKRDGSWWGYTTDYWGKGTQVTVSS
[1]
  ELISA A405: > 1.5

B15: NbRBD_C10 (VHH)
VHH: QVQLVESGGGLVQPGGSLRLSCAASGFAFSSYDMSWVRQAPGKGLEWVSAIDSGGGVTYYADSMKGRFTISRDNAKNTVYLQMNSLKPEDTAVYYCNAVDGLGYLEYDYWGQGTQVTVSS
[1]
  ELISA A405: > 1.5
